Assay results: publication PMC11660155

Experiments:
[1] = target: scCSGal-1–6H M120L R141AzK-ss-bio (human); experiment: BLI; Octet RED96e; streptavidin tips loaded with 60 ug/mL biotinylated scCSGal-1 protein; vWF at 25 ug/mL as analyte; association 600 s, dissociation 150 s; PBS with 0.05% Tween 20 and 0.1% BSA, pH 7.4; 25 °C, 1000 rpm; read-out Rt = response at 600 s
[2] = target: scCSGal-1–6H M120L Q142AzK-ss-bio (human); experiment: as above

- Rt (specific BLI response at 600 s) [1]: 0.32 nm
- Rt (specific BLI response at 600 s) [2]: 0.14 nm
Substance: von Willebrand factor (from UniProt P04275 764-2813) (natural protein)
